Laboratory results as given in the Human Domainome abundance scans (Beltran et al. 2025).

B1: Zinc finger MYM-type protein 3, residues 405 to 444; numbered along this chain, Q14202 (parent)
chain: DATRCSICQKTGEVLHEVSNGSVVHRLCSDSCFSKFRANK
B2: Kinesin-like protein KIF16B, residues 1213 to 1273; numbered along this chain, Q96L93 (parent)
chain: ETWTVFRRYSRFREMHKTLKLKYAELAALEFPPKKLFGNKDERVIAERRSHLEKYLRDFFS

Variants of: B1
Test: abundance fitness (aPCA) (normalised: wild type 0, dead -1); higher = more abundant; growth selection in yeast, the domain comes from the species named
Details: Homo sapiens

Abundance fitness: each site, then its substitutions
S29: C -0.591 | P -0.487 | W -0.669 | Y -0.936 | K -0.602 | F -1.05 | E -0.325 | L -0.755 | M -0.622
T11: G -0.127 | L -0.116 | D -0.104 | N -0.14 | Q -0.157 | V -0.452 | C -0.519
R26: C -0.312 | H -0.074 | K 0.013 | W -0.21 | I -0.173 | L -0.196
R37: F -0.506 | T 0.043 | I -0.512 | K 0.199 | E 0.395 | S 0.048 | A -0.003 | P -0.18 | C -0.093 | D 0.143
H25: A -0.122 | I -0.216 | T -0.046 | M -0.129 | P -0.363 | V -0.507 | L -0.266 | Q -0.038 | R -0.318
C5: Y -0.97 | F -0.776 | Q -1.05 | A -1.29
S34: K 0.206 | G 0.137 | T 0.125 | C -0.729 | W -0.187 | I -0.126 | M -0.039 | Y -1.01 | R 0.076
C8: R -0.787 | P -0.912 | V -1.11 | F -0.754 | L -0.843 | G -0.86
G12: L -0.245 | Q -0.228 | P -0.639 | H -0.215
I7: T -0.218 | R -0.25 | C -0.463 | F -0.13 | P -0.804 | Y 0.079 | A -0.325 | S -0.269 | M -0.194
D30: Y -0.857 | I -0.734 | F -0.632 | E -0.041 | C -1.66 | M -0.28 | K -0.109 | N -0.721 | P -0.371
L27: Y -0.056 | I -0.129 | F -0.019 | N -0.618 | C 0.032 | K -0.317 | G -0.331 | W -0.205
S6: Y 0.052 | Q -0.285 | V -0.469 | P -0.009 | N -0.218 | M -0.365
E13: Q -0.052 | S -0.201 | N -0.216 | G -0.271 | W -0.696 | H -0.204 | M -0.074 | L -0.391
N39: K 0.167 | P 0.043 | H -0.212 | C -0.319 | S 0.003 | M 0.048 | I -0.022 | Q 0.29 | D -0.228
S19: K 0.176 | H -0.268 | L -0.233 | A -0.215 | I -0.11 | F -0.101 | Y -0.383 | V -0.135
C28: E -0.576 | T -0.853 | A -0.594 | K -0.823 | D -0.529 | Y -0.85
V18: N -0.358 | C -0.201 | E -0.15 | M -0.266 | R -0.334 | H -0.209 | Q -0.243
N20: H -0.033 | V -0.296 | K -0.138 | S -0.069 | D 0.153 | M -0.001 | W -0.415
S31: G 0.055 | T 0.027 | W -0.218 | L -0.022 | P -0.025 | A -0.063 | H -0.16 | D 0.094 | Q 0.042 | K 0.081 | V -0.032
L15: E -0.227 | I 0.001 | K 0.079 | Q 0.102 | F -0.092
S22: C -0.56 | P -0.039 | D -0.432 | W -0.419 | L -0.208 | H -0.055
R4: S -0.35 | D 0 | G -0.219 | Y 0.079 | W -0.563 | F 0.147 | M 0.047 | I 0.211 | H -0.039
F33: I -0.067 | M 0.187 | R 0.106 | D -0.016 | S -0.015 | K 0.03 | T -0.072 | N 0.01 | G -0.044 | P -0.186
K35: L -0.127 | W -0.84 | D 0.053 | Y -0.175 | M 0.078 | A 0.119
A38: S -0.2 | Y -0.338 | L -0.265 | Q -0.072 | V -0.233 | P -0.354 | E 0.015
K10: Q -0.208 | N -0.559 | I -0.417 | C -0.367 | A -0.293 | L -0.273 | V -0.649 | R -0.098
V23: S 0.007 | Q 0.181 | H 0.092 | P -0.374 | F -0.01 | T 0.126 | W -0.757 | N 0.14 | D 0.079 | K 0.114
V14: Q -0.142 | S -0.185 | N -0.087 | R -0.374 | I -0.029 | D -0.228 | W -0.561
H16: N -0.252 | M -0.551 | I -0.701 | V -0.492 | K -0.158 | Y -0.466 | T -0.352 | E -0.033 | P -0.605 | C -1.09
T3: V -0.388 | F -0.181 | Q 0.205 | R -0.047 | C -0.726 | I -0.028 | W -0.085 | L -0.061 | P -0.561
E17: N -0.291 | R -0.44 | S -0.192 | K -0.073 | T -0.089 | L -0.764 | A -0.759
G21: K -0.214 | V -0.611 | F -0.366 | D 0.016 | N -0.646 | E 0.008 | R -0.354 | L -0.298
F36: V -0.085 | Q 0.002 | R -0.236 | Y -0.22 | N -0.772 | H -0.053 | D -0.082 | K -0.426
Q9: P -0.606 | L -0.22 | Y -0.014 | E 0.023 | V -0.803 | A -0.585 | S -0.129 | D -0.293 | G -0.16 | F -0.087 | H -0.194
D1: G 0.154 | S -0.054 | T 0.303 | P -0.32 | E 0.331 | K 0.157
V24: I -0.064 | F -0.307 | H -0.034 | T -0.038 | M 0.048 | Y -0.133 | K 0.032 | E -0.03 | L -0.077
K40: C 0.205 | N 0.15 | E 0.077 | W -0.116 | A -0.047 | L -0.095 | V 0.112 | P -0.12
A2: V -0.603 | M 0.48 | C 0.305 | T 0.35 | G -0.186
C32: L -0.676 | G -0.576 | Q -0.345 | H -0.59 | V -0.742 | I -0.587 | T -0.565 | R -0.832

Variants of: B2
Test: as above
Details: Homo sapiens

Abundance fitness of substitutions, site by site:
W3: A -0.66 | C -0.761
T2: C -0.5 | E -0.18 | N -0.286 | P 0.047 | A -0.687 | L 0.274 | S -0.523 | Q -0.541 | W -0.146 | I 0.085 | K -0.409 | G -0.721 | V -0.165 | M -0.538 | Y -0.352
E1: W -0.421 | D -0.001 | V -0.846 | N -0.153 | M -0.343 | L -0.75 | G -0.62 | K -0.26
